# Article PMC8097335, “A High‐Affinity Calmodulin‐Binding Site in the CyaA Toxin Translocation Domain is Essential for Invasion of Eukaryotic Cells” (Advanced Science, 2021)
# Target: T1, calmodulin (calcium-loaded: holo-CaM) (UniProt P0DP23)
# T1 construct: also called apo-CaM (without calcium)
# Experiment: other fluorescence titration + ITC
# Settings: both partners purified
Binder,fold decrease of affinity for CaM against P454 [fold],Kd [µM]
ASAHWGQRALQGAQAVAAAQRLVSAAALMTQ [P454 H477S-I479A peptide],~20,
ASAHWGQRALQGAQAVAAAQRAVSAAALMTQ [P454 L475A-H477S-I479A peptide],~20,
ASAHAGQRAAQGAQAVAAAQRLVHAIALMTQ [P454 W458A-L463A peptide],4,
ASAHWGQEALQGAQAVAAAQELVHAIALMTQ (also called TAMRA-P454 R12E) [P454 R12E peptide (P454 with R461E and R474E)],,22.7
